Biological target: CePoFUT1 single mutant M172C, singly labelled with ATTO488 or ATTO647N (Caenorhabditis elegans) (UniProt Q18014)
Experiment: single-molecule fluorescence coincidence (dual-colour PIE); CePoFUT1-A488 and CePoFUT1-A647N incubated 1:1 at 1 uM for 30 min in 10 mM Tris, 1 mM EDTA, 0.005% Tween 20, pH 8.5, diluted to 40 pM; substrates at 15-fold molar excess where added; monomer to dimer

Question: Which percent dimers (free form) does the source give for “CePoFUT1 single mutant M172C, singly labelled with ATTO488 or ATTO647N (from UniProt Q18014 26-383) (enzyme)” here?
Answer: 6.2%

Question: And the percent dimers (with GDP and HsEGF11-12-13)?
Answer: 4.6%

Question: What about the percent dimers (with HsEGF11-12-13) of the same substance?
Answer: 6.7%

Question: What about the percent dimers (with HsEGF12) of the same substance?
Answer: 6.8%

Question: What about the percent of total protein in a dimeric state of the same substance?
Answer: 4 to 6%

Question: What about the stoichiometry N of the same substance?
Answer: 2

From PMC8067585
